The values below come from patent US20090018093.

For this data set, the system named is Immunoglobulin E (IgE) (Homo sapiens), P01854-1. The experiment in a line: filter.
[1] abbreviates: 2'-OMe/2'-deoxy mix, 3:21 pair changed, DPBS Mg/Ca, 0.1 mg/mL BSA, RT.

Like-named read-outs stand apart in the source and are kept apart here.

Sequence of Immunoglobulin E (IgE) (Homo sapiens), P01854-1 (P01854 other isoform, or with tags, fused parts or gaps): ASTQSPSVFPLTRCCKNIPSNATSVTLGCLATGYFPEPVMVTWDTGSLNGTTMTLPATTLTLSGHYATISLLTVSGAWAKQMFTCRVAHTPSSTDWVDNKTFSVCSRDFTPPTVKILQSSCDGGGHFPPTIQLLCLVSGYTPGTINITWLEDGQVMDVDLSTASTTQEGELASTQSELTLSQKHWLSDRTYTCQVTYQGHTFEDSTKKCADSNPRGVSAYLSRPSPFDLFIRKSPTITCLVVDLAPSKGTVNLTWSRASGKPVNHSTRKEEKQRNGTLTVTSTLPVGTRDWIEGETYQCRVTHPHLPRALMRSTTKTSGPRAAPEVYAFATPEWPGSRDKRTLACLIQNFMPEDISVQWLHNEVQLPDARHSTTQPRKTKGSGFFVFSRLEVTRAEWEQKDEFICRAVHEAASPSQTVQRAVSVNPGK

As usually defined, the Kd is the equilibrium constant for the complex coming apart. As for “GGGGCTACTTTATCCGTTCCTCCUAGTGGGTAGCCCCN [ARC1288]”, under “2'-OMe U at 24, 3' idT, DPBS Mg/Ca, BSA”, the dissociation constant Kd stood at 2 nM.
As for “AGCCUGGGNGACCCAUNNNGNNGNNGNCNUNN [ARC3272]”, the Kd (ARC2342 chemistry with 2'-OMe G8,G9, 3' idT, DPBS Mg/Ca, BSA, RT) amounted to 0.12 nM.
Under “ARC2342 chemistry with 2'-OMe G8, 3' idT, DPBS Mg/Ca, BSA, RT”, “AGCCUGGGNGACCCAUNNNGNNGNNGNCNUNN [ARC3269]” gave a Kd of 0.52 nM.
Consider “GGGGCTACTTTATCCGTTCCTCCTAGTGGGTAGCCCCT [ARC1276]”, for which the dissociation constant Kd (2'-OMe at 12, 3' idT [12 (2'-OMe A), 38 (3' inverted dT)], DPBS Mg/Ca, BSA) was determined as 3 nM.
As for “GGGGCTACTTUATCCGUUCCTCCTAGTGGGTAGCCCC [ARC1389]”, the Kd (2'-OMe at 1-4,7,11,17,18,20,33-37, 3' idT [2'-OMe: 1-4,7,11,17,18,20,33-37, 38 = 3' inverted dT], DPBS Mg/Ca, BSA) was 5.4 nM.
Regarding “GGGGCTACTTTATCCGTTCCTCCTAGTGGGTAGCCCC [ARC1404]”, the dissociation constant Kd (2'-OMe at 1-4,7,33-37, PS 21-22, 3' idT [2'-OMe at 1-4,7,33-37, PS linkage 21-22 (internal N = PS, not a base), 3' inverted dT cap (terminal N, left out)], DPBS Mg/Ca, BSA) was found to be 1.8 nM.
Turning to AGCCUGGGGACCCAUGGGGGGCU [ARC3263], the Kd (ARC1666 pattern with 2'-OMe G9, 3' idT [dI (written G) at 16,18,20, 2'-OMe 1-5,7,9,10-15,17,22,23, deoxy 6,8,16,18-21, PS 8/9,15/16,16/17,18/19,20/21, 3' inverted dT left out], dPBS Ca/Mg + BSA, RT) is 0.026 nM.
As for “GGGGCACATTTATCCGTCCCTCCTAGTGGTGTGCCCC [DNA clone SEQ 119]”, the dissociation constant Kd was found to be 0.6 nM.
Turning to AGCCUGGGGACCCAUGGGGGGCU [ARC3262], the Kd (ARC1666 pattern with 2'-OMe G8, 3' idT [dI (written G) at 16,18,20, 2'-OMe 1-5,7,8,10-15,17,22,23, deoxy 6,9,16,18-21, PS 8/9,15/16,16/17,18/19,20/21, 3' inverted dT left out], dPBS Ca/Mg + BSA, RT) is 0.16 nM.
The sequence “GGGGCTACTTTATCCGTTCCTCCTAGTGGGTAGCCCCT [ARC1269]” gave a Kd (2'-OMe at 5, 3' idT [5 (2'-OMe C), 38 (3' inverted dT)], DPBS Mg/Ca, BSA) of 0.3 nM.
Where the note is “2'-OMe at 1-4,7,33-37, PS 15-16, 3' idT [2'-OMe at 1-4,7,33-37, PS linkage 15-16 (internal N = PS, not a base), 3' inverted dT cap (terminal N, left out)], DPBS Mg/Ca, BSA”, “GGGGCTACTTTATCCGTTCCTCCTAGTGGGTAGCCCC [ARC1398]” displayed a Kd of 2.7 nM.
“GGGGCAGCTTTATCCGTACCTCCCAGTGGGCTGCCCC [ARC474]” came in with a Kd of 0.7 nM.
Turning to “GGGGCTACTTTATCCGTTCCTCCTAGTGGGTAGCCCCT [ARC1292]”, the Kd (DNA with 2'-OMe G28, 3' idT [2'-OMe G28, 3' inverted dT at 38], dPBS Ca/Mg + BSA) worked out at 22 nM.
For AGCCUGGGGACCCAUGGGGGGCU [ARC1565], where the note is “ARC1335 chemistry with dI19 as printed, 3' idT [19=dI (G parent), 24=3' inverted dT], DPBS Mg/Ca, 0.1 mg/mL BSA, RT”, the Kd was 1.4 nM.
AGCCUGGGGACCCAUGGGGGGCU [ARC906]: the dissociation constant (Kd) (dRmY, 7-deaza-dG at G9 [7-deaza-dG: 9, 2'-OMe: 3-5,11-13,15,22,23, deoxy: all A,G], dPBS Ca/Mg + BSA, RT) came out at 88 nM.
Where the note is “2'-OMe U at 18, 3' idT, DPBS Mg/Ca, BSA”, “GGGGCTACTTTATCCGTUCCTCCTAGTGGGTAGCCCCN [ARC1282]” registered a dissociation constant Kd of 0.2 nM.
Take AGCCUGGGGACCCAUGGGGGGCU [ARC1261]: the Kd (2'-OMe C,U and G19, other A,G deoxy, 3' idT [2'-OMe: 3,4,5,11,12,13,15,19,22,23, 2'-deoxy: 1,2,6,7,8,9,10,14,16,17,18,20,21, 24 = 3' inverted dT], dPBS Ca/Mg + BSA, RT) is 63 nM.
As for AGCCUGGGGACCCAUGGGGGGCU [ARC3270], under “ARC1666 pattern with 2'-OMe G9 and extra PS after G21, C22 and U23, 3' idT [dI (written G) at 16,18,20, 2'-OMe 1-5,7,9,10-15,17,22,23, deoxy 6,8,16,18-21, PS 8/9,15/16,16/17,18/19,20/21,21/22,22/23,23/idT, 3' inverted dT left out], dPBS Ca/Mg + BSA, RT”, the Kd came out at 0.04 nM.
“AGCCNUGGGNGACCCAUNNNGNNGNNGCUN [ARC2972]”: the Kd (ARC1666 chemistry + PS 4-5, 3' idT, DPBS Mg/Ca, BSA, RT) turned out to be 0.05 nM.
As for AGCCUGGGNGACCCAUNNNGNNGNNGCUN [ARC3264], for the setting “ARC1666 chemistry with 2'-OMe I16, 3' idT, DPBS Mg/Ca, BSA, RT”, the Kd was 0.36 nM.
In turn, AGCCUGGGNGACCCAUNNNGNNGNNGCUN [ARC3267] had a Kd (ARC1666 chemistry with 2'-OMe G9,I16, 3' idT, DPBS Mg/Ca, BSA, RT) of 0.2 nM.
In the case of “AGCCUGGGNGACCCAUNNNGNNGNNGNCNUNN [ARC2342]”, the Kd (ARC1666 chemistry + PS 21-22,22-23,23-idT, 3' idT, second independent measurement 0.04 nM) was determined as 0.19 nM.
As to AGCCUGGGGACCCAUGGGGGGC [ARC2344], for the setting “ARC1666 pattern without 3' idT [dI (written G) at 16,18,20, 2'-OMe 1-5,7,10-15,17,22, deoxy 6,8,9,16,18-21, PS 8/9,15/16,16/17,18/19,20/21, no 3' idT], dPBS + BSA, RT”, the Kd amounted to 0.41 nM.
For “AGCCUGGGNGANCCCAUNNNGNNGNNGCUN [ARC2977]”, where the note is “ARC1666 chemistry + PS 10-11, 3' idT, DPBS Mg/Ca, BSA, RT”, the Kd was 0.05 nM.
Where the note is “2'-OMe G2,G7,G17 and all C,U, rest 2'-deoxy, 3' idT [2'-OMe G2,C3,C4,U5,G7,C11,C12,C13,U15,G17,C22,U23, 3' inverted dT at 24], DPBS Mg/Ca, 0.1 mg/mL BSA, RT”, AGCCUGGGGACCCAUGGGGGGCU [ARC1333] gave a Kd of 1.5 nM.
For the sequence “GGGGCUACTTUATCCGUUCCTCCTAGTGGGTAGCCCC [ARC1417]”, under “DNA with 2'-OMe 1-8,U11,U17,U18,C20,33-37, multiple PS, 3' idT [2'-OMe 1-8, U11, U17, U18, C20, 33-37, PS 9/10, 12/13, 14/15, 21/22, 24/25, 27/28, 30/31 (printed N = PS linkage, left out), 3' inverted dT at 38], dPBS Ca/Mg + BSA”, the dissociation constant (Kd) was determined as 27 nM.
“AGCCUGGGNGACCNCAUNNNGNNGNNGCUN [ARC2979]”: the dissociation constant (Kd) (ARC1666 chemistry + PS 12-13, 3' idT, DPBS Mg/Ca, BSA, RT) was 0.05 nM.
With “GGGGCTACTTTATCCGTTCCTCCTAGTGGGTAGCCCCT [ARC1286]”, the dissociation constant Kd (DNA with 2'-OMe C22, 3' idT [2'-OMe C22, 3' inverted dT38], dPBS Ca/Mg + BSA) was 7 nM.
Turning to AGACUGGGGACCCAUGGGGGUCU [ARC1249], under setting [1], the dissociation constant Kd turned out to be 130 nM.
For AGCCUGGGGACCCAUGGGGGGCU [ARC1566], under “ARC1335 pattern with dI20, 3' idT [dI20 (inosine, parent base G), 3' inverted dT24, rest ARC1335 pattern], dPBS Ca/Mg + BSA, RT”, the Kd came out at 0.1 nM.
As for AGCCUGGGGACCCAUGGGGGGCU [ARC2343], the Kd (ARC1666 pattern without 3' idT [dI (written G) at 16,18,20, 2'-OMe 1-5,7,10-15,17,22,23, deoxy 6,8,9,16,18-21, PS 8/9,15/16,16/17,18/19,20/21, no 3' idT], dPBS + BSA, RT) turned out to be 0.09 nM.
Consider “GGGGCTACTTTATCCGTTCCTCCTAGTGGGTAGCCCCN [ARC1297]”, for which the equilibrium dissociation constant (Kd) (2'-OMe at 33, 3' idT, DPBS Mg/Ca, BSA) turned out to be 0.8 nM.
“AGCCUGGGNGACCCAUNNNGNNGNNGCUNN [ARC2369]”: the Kd (ARC1666 pattern, 3'-NH-PEG20K, no idT, dPBS Ca/Mg + BSA, RT) was found to be 0.03 nM.
With “GGAUCCGAGGGUGGGCAAUAGGCUCACAAGGGUCC [rRfY minimer SEQ 94]”, the Kd (2'-F C and U, KD2 26.5 nM, 1xSHMCK + tRNA) was 1.01 nM.
In turn, “GGGGCTACTTTATCCGTTCCTCCTAGTGGGTAGCCCCT [ARC1304]” came in with a Kd (2'-OMe at 1-4,34-37, 3' idT [2'-OMe: 1-4,34-37, 38 = 3' inverted dT], DPBS Mg/Ca, BSA) of 0.6 nM.
“GGGGCTACTTTATCCGTTCCTCCTAGTGGGTAGCCCC [ARC1395]”: under “2'-OMe at 1-4,7,33-37, PS 12-13, 3' idT [2'-OMe at 1-4,7,33-37, PS linkage 12-13 (internal N = PS, not a base), 3' inverted dT cap (terminal N, left out)], DPBS Mg/Ca, BSA”, the Kd worked out at 5.7 nM.
On to AGCCUGGGGACCCAUGGGGGGCU [ARC1252], for which the Kd (2'-OMe C,U and G6, other A,G deoxy, 3' idT [2'-OMe: 3,4,5,6,11,12,13,15,22,23, 2'-deoxy: 1,2,7,8,9,10,14,16,17,18,19,20,21, 24 = 3' inverted dT], dPBS Ca/Mg + BSA, RT) worked out at 98 nM.
AGCCUGGGGACCCAUGGGGGGCU [ARC1257]: the Kd (2'-OMe A14 and all C,U, rest 2'-deoxy, 3' idT [2'-OMe at 3,4,5,11,12,13,14,15,22,23, 3'-idT at 24], DPBS Mg/Ca, 0.1 mg/mL BSA, RT) was 6 nM.
For AGCCUGGGGACCCAUGGGGGGCU [ARC908], the Kd (dRmY, 7-deaza-dG at G17 [7-deaza-dG: 17, 2'-OMe: 3-5,11-13,15,22,23, deoxy: all A,G], dPBS Ca/Mg + BSA, RT) worked out at 3 nM.
For the sequence AGUCUGGGGACCCAUGGGGGACU [ARC1247], under setting [1], the Kd was determined as 192 nM.
In the case of “AGNCCUGGGNGACCCAUNNNGNNGNNGCUN [ARC2970]”, the dissociation constant Kd (ARC1666 chemistry + PS 2-3, 3' idT, DPBS Mg/Ca, BSA, RT) was found to be 0.04 nM.
For the sequence “GGGGCTACTTTATCCGTTCCTCCTAGTGGGTAGCCCCN [ARC1287]”, the dissociation constant Kd (2'-OMe at 23, 3' idT, DPBS Mg/Ca, BSA) is 1 nM.
For the sequence AGCCUGGGGACCCAUGGGGGG [ARC2345], the dissociation constant (Kd) (ARC1666 pattern without 3' idT [dI (written G) at 16,18,20, 2'-OMe 1-5,7,10-15,17, deoxy 6,8,9,16,18-21, PS 8/9,15/16,16/17,18/19,20/21, no 3' idT], dPBS + BSA, RT) was determined as 29.3 nM.
As to “GGGGCTACTTTATCCGTTCCTCCTAGTGGGUAGCCCCN [ARC1295]”, the Kd (2'-OMe U at 31, 3' idT, DPBS Mg/Ca, BSA) came out at 3 nM.
Under “2'-OMe at 1-4,7,33-37, PS 9-10, 3' idT [2'-OMe at 1-4,7,33-37, PS linkage 9-10 (internal N = PS, not a base), 3' inverted dT cap (terminal N, left out)], DPBS Mg/Ca, BSA”, “GGGGCTACTTTATCCGTTCCTCCTAGTGGGTAGCCCC [ARC1392]” displayed a dissociation constant (Kd) of 3 nM.
For the sequence AGGCUGGGGACCCAUGGGGGCCU [ARC1245], the Kd under setting [1] stood at 198 nM.
